Tests used:
Test in all cases: peptide microarray of 8mer LY75 peptides, LY75_A1 at 1 µg/mL, anti-human IgG Alexa 647
RYPWHRFP = molecular target: T1, RYPWHRFP
T1 construct: 8mer of LY75 on the peptide microarray, chart Region 4
T1 peptide: RYPWHRFP
Method: (§1) The peptide microarray analysis was performed by LC Sciences, Houston Tex., in brief the method comprised the following steps:—Contiguous 8mer peptides of LY75 protein having […] spanning residues 216 to 1666 of the full length LY75 protein were synthesized and immobilized on a microarray chip. The chip comprised three panels such that the experiment was performed in triplicate. The microarray was addressed with LY75_A1 to identify the peptides to which the antibody bound. The binding assay was performed under the following conditions:—
(§2) The microarray comprising the contiguous peptides in triplicate was washed with 1 mL of binding buffer at 4° C. for 20 min. It was then incubated with 1 μg/mL LY75_A1 in binding buffer (pH 7.0) at 4° C. for 2 hrs. The array was again washed with 0.5 mL of washing buffer at 4° C. for 30 min then incubated with 25 ng/mL anti-human IgG Alexa 647 conjugate in binding buffer (pH 7.0) at 4° C. for 1 hr. The array was again washed with 0.5 mL of washing buffer at 4° C. for 30 min.

YFHQHSIL = molecular target: T2, YFHQHSIL
T2 construct: 8mer of LY75 on the peptide microarray, chart Region 8
T2 peptide: YFHQHSIL
Method: as §1, §2

FTSCSERH = molecular target: T3, FTSCSERH
T3 construct: 8mer of LY75 on the peptide microarray, chart Region 6
T3 peptide: FTSCSERH
Method: as §1, §2

KKLSRLTY = molecular target: T4, KKLSRLTY
T4 construct: 8mer of LY75 on the peptide microarray, chart Region 9
T4 peptide: KKLSRLTY
Method: as §1, §2

RRGWHFYD = molecular target: T5, RRGWHFYD
T5 construct: 8mer of LY75 on the peptide microarray, chart Region 3
T5 peptide: RRGWHFYD
Method: as §1, §2

YSNFHPLL = molecular target: T6, YSNFHPLL
T6 construct: 8mer of LY75 on the peptide microarray, chart Region 5
T6 peptide: YSNFHPLL
Method: as §1, §2

PWRRGWHF = molecular target: T7, PWRRGWHF
T7 construct: 8mer of LY75 on the peptide microarray, chart Region 3
T7 peptide: PWRRGWHF
Method: as §1, §2

SERHFVSL = molecular target: T8, SERHFVSL
T8 construct: 8mer of LY75 on the peptide microarray, chart Region 6
T8 peptide: SERHFVSL
Method: as §1, §2

RELTYSNF = molecular target: T9, RELTYSNF
T9 construct: 8mer of LY75 on the peptide microarray, chart Region 5
T9 peptide: RELTYSNF
Method: as §1, §2

AVYFHQHS = molecular target: T10, AVYFHQHS
T10 construct: 8mer of LY75 on the peptide microarray, chart Region 8
T10 peptide: AVYFHQHS
Method: as §1, §2

SCYKVFHA = molecular target: T11, SCYKVFHA
T11 construct: 8mer of LY75 on the peptide microarray, chart Region 2
T11 peptide: SCYKVFHA
Method: as §1, §2

YSRYPWHR = molecular target: T12, YSRYPWHR
T12 construct: 8mer of LY75 on the peptide microarray, chart Region 4
T12 peptide: YSRYPWHR
Method: as §1, §2

SLSCYKVF = molecular target: T13, SLSCYKVF
T13 construct: 8mer of LY75 on the peptide microarray, chart Region 2
T13 peptide: SLSCYKVF
Method: as §1, §2

GSRWIQYK = molecular target: T14, GSRWIQYK
T14 construct: 8mer of LY75 on the peptide microarray, chart Region 10
T14 peptide: GSRWIQYK
Method: as §1, §2

SRYPWHRF = molecular target: T15, SRYPWHRF
T15 construct: 8mer of LY75 on the peptide microarray, chart Region 4
T15 peptide: SRYPWHRF
Method: as §1, §2

DDHFTYSR = molecular target: T16, DDHFTYSR
T16 construct: 8mer of LY75 on the peptide microarray, chart Region 4
T16 peptide: DDHFTYSR
Method: as §1, §2

EAVYFHQH = molecular target: T17, EAVYFHQH
T17 construct: 8mer of LY75 on the peptide microarray, chart Region 8
T17 peptide: EAVYFHQH
Method: as §1, §2

LNNLYKII = molecular target: T18, LNNLYKII
T18 construct: 8mer of LY75 on the peptide microarray, chart Region 7
T18 peptide: LNNLYKII
Method: as §1, §2

RWIQYKGH = molecular target: T19, RWIQYKGH
T19 construct: 8mer of LY75 on the peptide microarray, chart Region 10
T19 peptide: RWIQYKGH
Method: as §1, §2

VKYLNNLY = molecular target: T20, VKYLNNLY
T20 construct: 8mer of LY75 on the peptide microarray, chart Region 7
T20 peptide: VKYLNNLY
Method: as §1, §2

LSCYKVFH = molecular target: T21, LSCYKVFH
T21 construct: 8mer of LY75 on the peptide microarray, chart Region 2
T21 peptide: LSCYKVFH
Method: as §1, §2

KLSRLTYS = molecular target: T22, KLSRLTYS
T22 construct: 8mer of LY75 on the peptide microarray, chart Region 9
T22 peptide: KLSRLTYS
Method: as §1, §2

VYFHQHSI = molecular target: T23, VYFHQHSI
T23 construct: 8mer of LY75 on the peptide microarray, chart Region 8
T23 peptide: VYFHQHSI
Method: as §1, §2

KGHCYKSD = molecular target: T24, KGHCYKSD
T24 construct: 8mer of LY75 on the peptide microarray, chart Region 10
T24 peptide: KGHCYKSD
Method: as §1, §2

Measured: binding result

B1: LY75_A1 (antibody, V domains shown)
VH: EVQLVESGGGLVKPGGSLRLSCAASGFTYSNAWMSWVRQAPGKGLEWVGRIKSKTDGGTTDYAAPVQGRFTISRDDSKNTLYLQMNSLKTEDTAVYYCTIFGVVSFDYWGQGTLVTVSS
VL: DVQMTQSPSSLSASVGDRVTITCRASQSISDYLSWYQQRPGKAPNLLIYAASNLKTGVPSRFSGSGSGTDFTLTISTLQPEDFATYYCQQSYRSPWTFGQGTKVEIKR
notes: detected with anti-human IgG in the microarray; also called antibody LY75_A1; LY75_A1 monoclonal antibody
binds: all assays above

Reference: patent US20200040086A1 (BERLIN CHEMIE, published 2020)
